Results taken from article PMC10012886.
Values joined by “and” are separate entries in the source; they are usually repeats but may differ in a detail not shown here. Equal values may be shown once.

Key:
[1] = biological target: Cadonilimab (hG1WT); test: BLI
[2] = biological target: human PD-1 on 293 T-PD1 cells (human) (UniProt Q15116); test: flow cytometry on cells
[3] = biological target: human CTLA-4 on 293 T-CTLA4 cells (human) (UniProt P16410); test: flow cytometry on cells
[4] = biological target: fusion protein of human Fc with human PD-1 extracellular domain (PD1-hFc) (human) (UniProt Q15116); test: ELISA
[5] = biological target: fusion protein of mouse Fc with human PD-1 extracellular domain (PD1-mFc) (Homo sapiens (Human).) (UniProt Q15116); test: ELISA
[6] = biological target: human PD-1 and CTLA-4 mixture (mol/mol: 1/1) immobilized on AMC sensors (human); test: BLI
[7] = biological target: FcγRIIIa_V158 (FcγRIIIa 158 V alleles); test: BLI
[8] = biological target: FcγRIa (UniProt P12314); test: BLI
[9] = biological target: FcγRIIIa_F158 (FcγRIIIa 158 F alleles) (UniProt P08637); test: BLI
UniProt P08637, sequence (P08637 17-254): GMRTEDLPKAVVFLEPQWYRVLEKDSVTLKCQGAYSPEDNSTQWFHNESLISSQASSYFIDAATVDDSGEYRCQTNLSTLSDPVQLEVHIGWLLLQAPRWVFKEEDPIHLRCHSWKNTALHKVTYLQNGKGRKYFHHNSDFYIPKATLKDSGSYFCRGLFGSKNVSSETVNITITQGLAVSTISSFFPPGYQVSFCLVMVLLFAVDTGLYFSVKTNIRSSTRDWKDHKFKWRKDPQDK

UniProt P12314, sequence (P12314 16-374): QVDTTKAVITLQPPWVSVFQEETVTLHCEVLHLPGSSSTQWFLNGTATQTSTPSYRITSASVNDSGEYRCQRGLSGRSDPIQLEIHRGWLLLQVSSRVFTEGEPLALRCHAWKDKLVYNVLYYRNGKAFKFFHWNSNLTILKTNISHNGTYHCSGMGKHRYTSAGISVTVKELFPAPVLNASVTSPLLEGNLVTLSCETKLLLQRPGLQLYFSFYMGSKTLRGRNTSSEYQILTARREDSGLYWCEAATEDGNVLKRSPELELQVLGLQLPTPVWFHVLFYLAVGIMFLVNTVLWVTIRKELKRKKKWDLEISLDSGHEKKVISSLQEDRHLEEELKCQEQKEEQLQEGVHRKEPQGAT
UniProt P16410, sequence (P16410 36-223): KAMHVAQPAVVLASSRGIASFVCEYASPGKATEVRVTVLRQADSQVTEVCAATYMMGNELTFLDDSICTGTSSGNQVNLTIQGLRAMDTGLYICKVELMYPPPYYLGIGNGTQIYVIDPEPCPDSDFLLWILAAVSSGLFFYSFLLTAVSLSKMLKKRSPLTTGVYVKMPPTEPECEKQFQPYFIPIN

C1q (complex)
Kd [1]: 2.53 nM | koff [1]: 0.00517 s⁻¹ | kon [1]: 2.05e+06 M⁻¹ s⁻¹

Cadonilimab (bispecific antibody)
EC50 [2]: 1.81 nM and 2.62 nM | EC50 [3]: 3.93 nM and 3.09 nM | EC50 [4]: 0.792 nM and 1.43 nM | EC50 [5]: 0.051 nM | fold higher binding avidity than with low-density PD-1 [6]: 10 fold

Cadonilimab (hG1WT) (bispecific antibody)
Kd [7]: 177 nM | koff [7]: 0.0214 s⁻¹ | kon [7]: 121000 M⁻¹ s⁻¹ | Kd [8]: 5.92 nM | koff [8]: 0.00181 s⁻¹ | kon [8]: 306000 M⁻¹ s⁻¹ | Kd [9]: 221 nM | koff [9]: 0.0247 s⁻¹ | kon [9]: 112000 M⁻¹ s⁻¹
